Reference: the supplement of paper PMC12764529
± gives the half width of the 95% confidence interval.

Experiments:
[1] = folding stability dG unfold from chymotrypsin proteolysis; higher = more stable
Description: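 Folding stability of de novo designed mini-proteins (<80 aa, no Cys; designed by TrROS, TrMRF, ProteinMPNN and the joint model) was measured by cDNA display proteolysis with trypsin and chymotrypsin. Each protease was used at 11 concentrations in a threefold dilution series plus a no-protease condition. K50 was inferred by Bayesian fitting of sequencing counts, and dG unfold was derived against a sequence-predicted unfolded-state K50 (Tsuboyama et al. method). Sequences shown include variable-length N-terminal GS-type padding (SAGGSAGG...) inside a display construct carrying a PA tag. Rows were kept only if the AF2 dimer inter-PAE was >15, to exclude likely homo-oligomers.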

[2] = folding stability dG unfold (combined trypsin and chymotrypsin); higher = more stable
Summary of the method: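 Digests were run with trypsin and chymotrypsin at 11 concentrations in threefold dilutions, plus a no-protease condition, on designed mini-proteins in a PA-tagged cDNA display construct. The mini-proteins were under 80 residues, had no cysteine, and were kept only when AlphaFold2 dimer inter-PAE was above 15. After sequencing, Bayesian fitting of the counts gave K50, from which unfolding free energy was derived against a sequence-predicted unfolded-state K50 and a shared folded-state K50, per protease or combined.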

Sequence | folding stability dG unfold [1] [kcal/mol] | folding stability dG unfold [2] [kcal/mol]
SAGGEITIVIEGMSEEEREKALEEVRNKIKELKEKHPEKKITIVVDTPEAKKVAEELKKEGYEVEILSAGGS [r16_450_TrROS_Hall] | 2.06 ± 0.15 | 2.86 ± 0.43
SAGGGENAPKPIVEPKLVSTFLIDVEPDTYTPEEIAELFKEATGYEIEEVEVEELPDDNTVLVTVVAGSAGG [r13_457_TrMRF] | 0.472 ± 0.24 | 0.0888 ± 0.22
SAGGGLARELFEAENLPVVVEEEERDGKPVLRLVVDAGDKPLVFESDGEDVERAVREAARELGLPGLSAGGS [r8_226_TrMRF] | 0.674 ± 0.085 | 0.337 ± 0.15
SAGGGMPLEELKDIPENLPPGARVRLRFPETGEEGVYVLREDGGYTVEVPGGVVEAPEDTEVTEIVPSAGGS [r8_162_TrMRF] | 0.414 ± 0.13 | -0.192 ± 0.17
SAGGGMPVPEVEVELLEEREVPGGRVTLGRAKTPDAWETLTTEYDPATGRRRTWRETPEGVTPYAEEGSAGG [r13_445_JUSTAS] | -0.567 ± 0.65 | < -1
SAGGGNPPVLKIELTKTYHPPDGTKVELYRVEHPVEPREIYIVKTYPDDGAEEVKIVKEEELKEALKSAGGS [r8_421_JUSTAS] | 0.771 ± 0.36 | < -1
SAGGGPGSVSPQPFEEDYTLPDPGEKIRVKVTAYTLPDGSVVERAVSPEPEREFVFTRDGETVTVTPESAGG [r13_117_JUSTAS] | 0.612 ± 0.088 | 0.116 ± 0.12
SAGGGRMIKLTFKSGETKTIPLSSDYPDAKVEVSEKDDKLYITVTYPNGEKITYEFPLSEVESIEILSAGGS [r16_658_JUSTAS] | 4.526 ± 0.042 | 4.7 ± 0.1
SAGGGSSSSSIATETFTKEVEVPTEDGKLKKVLVTTTVSRPISLEPKTGKKYSLSTTVTTTTVSPEELSAGG [r13_312_JUSTAS] | -0.461 ± 0.58 | < -1
SAGGGSSVTYDPATGEVTVTLHPVDPHPGRLRSRTLPLPAPGSPEEVRERIRALVEAEPAWSTDLTAASAGG [r13_284_JUSTAS] | 0.892 ± 0.12 | 0.423 ± 0.18
SAGGGSTVVTTTEPAAAVRARVEAEARARGVALDVDVTVEPTPEGPVVTFDVRVDPGAPAVPAANRVSAGGS [r16_262_JUSTAS] | 0.0214 ± 0.23 | -0.629 ± 0.25
SAGGGTVVDPGPRVVTITVRPPDGKPRTITLPLPDATPEEIRARLEAVAAALPEAGATVDVLDIRPLPSAGG [r13_29_JUSTAS] | 0.941 ± 0.024 | 0.397 ± 0.064
SAGGIKELQEALREGNLPEIIKELKKRGYENVKIQPNPDEGTIEIEIERKDPEDGKPEEEELTIPLEPSAGG [r13_359_TrROS] | 0.184 ± 0.084 | -0.271 ± 0.21
SAGGIRLEIPPNWTPEEAKEQAEELANFFAKKGPMEVEDIEYKRDEKDGNPMIVGEIRDPKNGKEWTISAGG [r13_669_TrROS] | -0.127 ± 0.3 | -0.754 ± 0.68
SAGGKITIDVNYNPEENNFRIKITWPNGKEKELPIPMEGMPAEDMRREAREFAQNLNPDGLKEVEIEPSAGG [r13_267_TrROS] | 0.369 ± 0.21 | 0.285 ± 0.43
SAGGKITIEKKEDGTYTITINGKKFTFKFKPGAKVEIKIEKKKDGTYTITITVTNKDGSKKTFKIKLSAGGS [r16_231_TrROS_Hall] | 4.85 ± 0.26 | 4.87 ± 0.47

Sequence | folding stability dG unfold [1] [kcal/mol] | folding stability dG unfold [2] [kcal/mol]
SAGGLSVSSVSTGSDKITVTVTGSGSPVATVEIPPGLPNTEVTATVLPDGSVRVELKTGNTPRTIEVPLSAG [r5_533_JUSTAS] | -0.445 ± 0.14 | -0.783 ± 0.28
SAGGLTLSTFESDEDVKPEWDPNKPVKVKVKTLTTTEPVPNRPHTVTTTTTLRENEEGTTPFTGTDTSAGGS [r16_300_JUSTAS] | 0.612 ± 0.061 | -0.11 ± 0.12
SAGGMAEELAKLLKELFPDEEVEVEVKVEEKEVNGKKYLTITVTVRNKKTGKKIKEIKLVIELPEEESAGGS [r8_207_TrROS_Hall] | 4.23 ± 0.32 | > 6
SAGGMESPVKAVDPSTGAERSFTIPREEAEALLAAGETTIEIPYSGGPMTVEITPLPDGTYAITGKAPSAGG [r13_171_JUSTAS] | 0.206 ± 0.24 | -0.16 ± 0.14
SAGGMESSVLSVSTITRSAPPGSPLASTTATVTVTKTDGRTIVTVPATGVVYTVNPDGTVTADPVDPPSAGG [r13_721_JUSTAS] | -0.515 ± 0.4 | < -1
SAGGMIEKVEIREVDPETGEVTVTFHVPSEDLEKLGPIPFPGVKEVRFFPGEKTIEARMPLEDALKHSAGGS [r16_614_TrMRF] | 0.538 ± 0.098 | -0.0448 ± 0.19
SAGGMKKIKVPDGSEIGSVNPKGGIDYVKVKLPGSGVLVEKAVPKGGKLVIPKNIPVELVEIKDYPLSAGGS [r16_123_TrMRF] | -0.0202 ± 0.12 | -0.366 ± 0.2
SAGGMKLTLTFTETSVLPDGTPVTTTSTTPLSPDVPVEEVAAALAETNPDVTVTVHEPSTGSTRTLRTSAGG [r13_663_JUSTAS] | 0.0497 ± 0.13 | -0.351 ± 0.14
SAGGMKVTPLGTEPRPDGTTTTTYLSTLPNGTPVTTTTTTSTIPPPPVPPFSPEEVAAAAARRAAAASAGGS [r16_8_JUSTAS] | 0.249 ± 0.21 | < -1
SAGGMLKVEVIEVPPDEVGPEKLRAEIKAKYPDVEVRFETLPDGTLRVTVEIPVPEEPSKPLPLEKKSAGGS [r16_535_JUSTAS] | 0.743 ± 0.077 | 0.482 ± 0.3
SAGGMMRTVTEPLSPEELEELRKEGWTVLGTEPGKVTVRVPVVPPLSPEEVAQARAAGLSEAEAAAARSAGG [r19_115_JUSTAS] | 0.587 ± 0.14 | 0.0214 ± 0.28
SAGGMPDRVRPFPFRAPVLRLDPPEPEEVEVVAFVFPDNRVLALARSPDPGRVLLAVDDGDRVLVADASAGG [r13_117_TrMRF] | 0.12 ± 0.15 | -0.477 ± 0.19
SAGGMPLSTESFVQESSGDGTPFTTTKTTYRDVNGNPLVTPVSTVDPVAGTTTTTVTVDGTPVTTTTPSAGG [r13_948_JUSTAS] | -0.386 ± 0.2 | -0.701 ± 0.17
SAGGMPVPKEKVKSVLYLPHPESDEPEVLVLAELGGKPVLFVIPSELSLEEAIKAVEEGVEAGPIDLGSAGG [r13_225_TrMRF] | 0.402 ± 0.14 | -0.355 ± 0.27
SAGGMRLEHLRNMIKNMPPGMKDVNINQHPGHGNYTFSVENPNKPVSIPFDSPEDQQEIQELAREYVKSAGG [r13_287_TrROS] | 0.19 ± 0.19 | -0.417 ± 0.29
SAGGMTITLPKNMTKEELEALAKKLEEETGLKVTIEYNEETNEVTITVEGLSEEEQERIKKLLEEAASAGGS [r16_227_TrROS_Hall] | 3.49 ± 0.34 | > 6
